What was measured:
[1] = target: GDNF family receptor alpha 1 (GFRA1) (UniProt P56159); assay: cell-based or functional assay
[2] = target: trans-membrane receptor kinase RET (UniProt P07949); assay: cell-based or functional assay
Chain of trans-membrane receptor kinase RET (P07949 29-1114 limits assumed): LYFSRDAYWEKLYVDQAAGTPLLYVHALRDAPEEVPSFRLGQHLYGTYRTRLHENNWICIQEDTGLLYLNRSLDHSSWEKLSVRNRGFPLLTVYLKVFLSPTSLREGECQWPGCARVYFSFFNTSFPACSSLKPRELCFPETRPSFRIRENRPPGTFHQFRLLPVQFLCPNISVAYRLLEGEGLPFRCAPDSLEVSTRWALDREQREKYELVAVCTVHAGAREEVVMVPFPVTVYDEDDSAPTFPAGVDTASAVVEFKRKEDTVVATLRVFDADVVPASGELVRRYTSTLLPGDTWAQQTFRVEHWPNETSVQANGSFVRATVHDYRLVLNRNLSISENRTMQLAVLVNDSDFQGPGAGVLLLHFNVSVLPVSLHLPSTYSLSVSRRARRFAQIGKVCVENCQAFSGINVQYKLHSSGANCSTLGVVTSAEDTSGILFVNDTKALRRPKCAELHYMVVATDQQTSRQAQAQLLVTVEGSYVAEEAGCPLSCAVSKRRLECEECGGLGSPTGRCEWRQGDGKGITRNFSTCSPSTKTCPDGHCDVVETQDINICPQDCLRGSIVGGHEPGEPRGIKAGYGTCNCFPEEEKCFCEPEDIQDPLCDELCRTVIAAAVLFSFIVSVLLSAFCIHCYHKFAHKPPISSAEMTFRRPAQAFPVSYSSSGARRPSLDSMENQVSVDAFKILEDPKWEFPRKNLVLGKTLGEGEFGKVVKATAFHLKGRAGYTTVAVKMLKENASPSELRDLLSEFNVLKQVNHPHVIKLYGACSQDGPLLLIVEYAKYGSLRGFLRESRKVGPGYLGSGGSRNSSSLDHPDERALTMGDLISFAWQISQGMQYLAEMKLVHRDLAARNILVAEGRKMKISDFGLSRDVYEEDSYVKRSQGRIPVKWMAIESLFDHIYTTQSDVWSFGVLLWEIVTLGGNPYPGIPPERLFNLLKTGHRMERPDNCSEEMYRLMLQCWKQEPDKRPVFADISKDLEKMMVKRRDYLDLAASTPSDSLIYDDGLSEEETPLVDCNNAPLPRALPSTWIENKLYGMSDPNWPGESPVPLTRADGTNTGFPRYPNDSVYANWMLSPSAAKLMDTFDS

Chain of GDNF family receptor alpha 1 (GFRA1) (P56159 25-429 limits assumed): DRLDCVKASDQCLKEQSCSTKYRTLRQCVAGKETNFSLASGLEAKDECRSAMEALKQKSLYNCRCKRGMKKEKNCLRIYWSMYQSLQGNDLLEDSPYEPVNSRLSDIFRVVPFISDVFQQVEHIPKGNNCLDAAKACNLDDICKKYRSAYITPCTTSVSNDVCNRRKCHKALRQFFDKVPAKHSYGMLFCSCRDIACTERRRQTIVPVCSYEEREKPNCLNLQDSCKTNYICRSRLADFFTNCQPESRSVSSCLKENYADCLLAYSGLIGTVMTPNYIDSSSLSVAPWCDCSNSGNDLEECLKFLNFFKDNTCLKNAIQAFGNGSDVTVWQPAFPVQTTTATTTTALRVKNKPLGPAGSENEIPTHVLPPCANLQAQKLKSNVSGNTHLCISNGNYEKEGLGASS

glial cell line-derived neurotrophic factor (GDNF) (from UniProt P39905 78-211) (ligand)
proliferation, GDNF concentration of maximum stimulation [1]: 10 ng/mL
proliferation, GDNF concentration of maximum stimulation [2]: 10 ng/mL

— patent publication US20150309037A1
